Test results: publication PMC7279886, “A non-linear system patterns Rab5 GTPase on the membrane” (eLife, 2020)

Legend:
Details in all cases: both partners purified
[1] = molecular target: T1, Rabaptin5 (human, UniProt Q15276 1-862); experiment: HDX-MS; Rabex5/Rabaptin5 premixed with Rab5:GDP, ternary complex diluted into deuterated buffer with GTPγS, 1, 5 and 15 min, 22 °C; uptake compared with the sample without GTPγS
T1 construct: Rabaptin5, human, 99 kDa; GST served for capture in the co-purification and was then cut from the resin with GST-3C protease; also called GST-Rabaptin5; not shown: GST, N-terminal, cleaved
T1 sequence (looked up): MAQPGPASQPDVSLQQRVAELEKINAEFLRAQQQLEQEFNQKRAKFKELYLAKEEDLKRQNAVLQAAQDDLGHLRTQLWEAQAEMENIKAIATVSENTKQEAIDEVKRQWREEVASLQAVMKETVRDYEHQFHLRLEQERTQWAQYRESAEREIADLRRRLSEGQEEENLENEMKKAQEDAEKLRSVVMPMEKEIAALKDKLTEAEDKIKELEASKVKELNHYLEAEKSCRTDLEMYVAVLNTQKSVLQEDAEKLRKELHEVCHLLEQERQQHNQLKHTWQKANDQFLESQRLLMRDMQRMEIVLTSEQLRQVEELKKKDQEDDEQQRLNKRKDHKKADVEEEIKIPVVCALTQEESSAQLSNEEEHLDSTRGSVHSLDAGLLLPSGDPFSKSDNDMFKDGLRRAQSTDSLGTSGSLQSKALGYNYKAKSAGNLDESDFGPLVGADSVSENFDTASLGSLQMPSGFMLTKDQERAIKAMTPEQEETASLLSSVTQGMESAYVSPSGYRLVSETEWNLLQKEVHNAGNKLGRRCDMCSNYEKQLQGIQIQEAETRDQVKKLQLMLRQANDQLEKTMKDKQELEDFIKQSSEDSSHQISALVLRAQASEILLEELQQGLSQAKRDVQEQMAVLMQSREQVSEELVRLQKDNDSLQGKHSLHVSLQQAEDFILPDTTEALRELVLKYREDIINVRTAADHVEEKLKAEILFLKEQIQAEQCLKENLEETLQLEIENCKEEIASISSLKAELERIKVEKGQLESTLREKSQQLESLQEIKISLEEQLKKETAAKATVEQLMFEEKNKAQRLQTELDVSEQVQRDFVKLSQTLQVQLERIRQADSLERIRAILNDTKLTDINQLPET

[2] = molecular target: T2, Rabex5 (Bos taurus, UniProt O18973 1-492); experiment: HDX-MS; Rabex5/Rabaptin5 premixed with Rab5:GDP, ternary complex diluted into deuterated buffer without GTPγS, 1, 5 and 15 min, 22 °C
T2 construct: Rabex5, Bos taurus, 57 kDa Vps9 domain containing GEF for Rab5; The His tag served for capture in the co-purification and was then cut with 3C protease; also called Rabex5-6xHis
T2 sequence (O18973 whole entry, the tested form may be a part): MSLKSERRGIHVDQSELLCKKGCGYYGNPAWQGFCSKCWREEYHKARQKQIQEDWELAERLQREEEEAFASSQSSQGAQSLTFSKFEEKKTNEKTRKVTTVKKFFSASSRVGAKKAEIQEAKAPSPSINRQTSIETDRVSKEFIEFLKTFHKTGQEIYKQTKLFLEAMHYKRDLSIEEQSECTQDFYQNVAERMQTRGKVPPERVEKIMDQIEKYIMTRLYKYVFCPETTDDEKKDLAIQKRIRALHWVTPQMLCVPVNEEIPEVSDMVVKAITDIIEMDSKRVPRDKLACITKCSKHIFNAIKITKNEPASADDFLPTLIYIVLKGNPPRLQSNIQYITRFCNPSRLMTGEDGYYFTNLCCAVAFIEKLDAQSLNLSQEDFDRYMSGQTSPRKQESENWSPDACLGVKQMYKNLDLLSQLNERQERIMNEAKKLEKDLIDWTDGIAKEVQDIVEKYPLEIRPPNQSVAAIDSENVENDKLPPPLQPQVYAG

[3] = molecular target: T3, Rabex5/Rabaptin5 complex (Bos taurus | human, UniProt O18973 1-492; Q15276 1-862); experiment: as above
T3 construct: Rabex5, Bos taurus, 57 kDa Vps9 domain containing GEF for Rab5; Rabaptin5, human, 99 kDa; also called GEF/effector complex; not shown: GST, N-terminal, cleaved; copies: 2 + 2
T3 sequence (O18973 whole entry, the tested form may be a part, one chain of several): as the sequence (O18973 whole entry, the tested form may be a part) above

- binding result [1]: binds
- binding result [2]: binds
- binding result [3]: binds
B1: Rab5 (natural protein, human, UniProt P20339 1-215, looked up)
chain: MASRGATRPNGPNTGNKICQFKLVLLGESAVGKSSLVLRFVKGQFHEFQESTIGAAFLTQTVCLDDTTVKFEIWDTAGQERYHSLAPMYYRGAQAAIVVYDITNEESFARAKNWVKELQRQASPNIVIALSGNKADLANKRAVDFQEAQSYADDNSLLFMETSAKTSMNVNEIFMAIAKKLPKNEPQNPGANSARGRGVDLTEPTQPTRNQCCSN
notes: Rab5a, human; Rab5 as used in the HDX-MS experiment, printed there without GFP; also called Rab5a; Rab5:GDP; source: Sf9, purified (Ni-NTA, SEC)
